Paper PMC11390479, “Visualizing chaperonin function in situ by cryo-electron tomography” (Nature, 2024)
Values belong to the binder of their own block, whether it stands above or below them.

What was measured:
[1] = target: the molecule itself; assay: cryo-EM structure; single-particle analysis of in vitro reconstituted GroEL–GroES–MetK complexes with ADP–BeFx (non-cycling); control of GroEL and GroES treated identically without MetK
GroEL [2] = target: T1, GroEL (E. coli, UniProt P0A6F5 1-548); assay: cryo-electron tomography with subtomogram averaging; in vitro reconstituted, isolated GroEL–GroES–MetK complexes with ADP–BeFx, imaged with the parameters of the in situ tomography; conditions: both partners purified
T1 construct: GroEL, E. coli chaperonin, 57 kDa subunit; two heptameric rings; One molecule for endogenous, pBAD33-expressed and purified GroEL (same untagged protein, same host); also called GroEL 14-mer; GroEL14; source: E. coli BL21(DE3) Gold: endogenous or overexpressed from pBAD33 (araBAD promoter), in cells or in lysate; copies: 14

GroEL [3] = target: T1, GroEL; assay: co-IP; GroEL antibody on protein A Sepharose; lysate of MetK-overexpressing cells with apyrase (25 U/ml) to arrest the GroEL cycle; HMK buffer, 1 h; immunoblot for GroEL and MetK and LC-MS/MS (iBAQ); conditions: partners not purified
GroEL [4] = target: T1, GroEL; assay: SEC; Superdex 200 3.2/300 GL; complex formed from 4 uM MetK heat denatured (60 °C, 15 min) with 1 uM GroEL 14-mer in buffer A (20 mM MOPS-NaOH pH 7.4, 200 mM KCl, 10 mM MgCl2, 5 mM DTT) with 30 mM NaF and 5 mM BeSO4, then 2 uM GroES 7-mer and 1 mM ATP; fractions by SDS-PAGE and mass spectrometry (iBAQ); conditions: both partners purified

T1 sequence (P0A6F5 whole entry): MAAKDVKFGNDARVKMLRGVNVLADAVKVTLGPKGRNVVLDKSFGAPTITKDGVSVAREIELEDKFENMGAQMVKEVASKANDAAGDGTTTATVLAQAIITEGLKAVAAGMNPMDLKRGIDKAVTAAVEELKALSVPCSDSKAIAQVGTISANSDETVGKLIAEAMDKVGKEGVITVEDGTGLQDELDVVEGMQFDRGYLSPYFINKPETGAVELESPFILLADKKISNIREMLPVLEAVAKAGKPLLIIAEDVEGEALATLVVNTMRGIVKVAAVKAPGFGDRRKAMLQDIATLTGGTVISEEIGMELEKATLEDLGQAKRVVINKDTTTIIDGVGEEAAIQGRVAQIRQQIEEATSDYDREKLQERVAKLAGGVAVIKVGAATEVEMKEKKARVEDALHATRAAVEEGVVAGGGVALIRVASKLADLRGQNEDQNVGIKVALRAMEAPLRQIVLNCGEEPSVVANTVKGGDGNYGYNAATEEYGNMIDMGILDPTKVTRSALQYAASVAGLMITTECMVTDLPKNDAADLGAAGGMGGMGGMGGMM

B1: GroES (complex, E. coli, UniProt P0A6F9 1-97, looked up)
chain: MNIRPLHDRVIVKRKEVETKSAGGIVLTGSAAAKSTRGEVLAVGNGRILENGEVKPLDVKVGDIVIFNDGYGVKSEKIDNEEVLIMSESDILAIVEA
notes: GroES, E. coli co-chaperonin, heptamer of 10 kDa subunits; also called GroES 7-mer; lid-shaped cofactor GroES; source: E. coli BL21(DE3) Gold: endogenous or overexpressed from pBAD33 (with groEL, araBAD promoter), in cells
- binding result [1]: binds

- percent of chambers with strong density of folded MetK (class I) (GroEL [2]): ~40%
- stoichiometry N (GroEL [3]): ~1.3 MetK molecules per GroEL complex
- stoichiometry N (GroEL [4]): ~1.2 MetK per GroEL 14-mer
B2: S-adenosylmethionine synthase (MetK) (enzyme, E. coli)
chain: MAKHLFTSESVSEGHPDKIADQISDAVLDAILEQDPKARVACETYVKTGMVLVGGEITTSAWVDIEEITRNTVREIGYVHSDMGFDANSCAVLSAIGKQSPDINQGVDRADPLEQGAGDQGLMFGYATNETDVLMPAPITYAHRLVQRQAEVRKNGTLPWLRPDAKSQVTFQYDDGKIVGIDAVVLSTQHSEEIDQKSLQEAVMEEIIKPILPAEWLTSATKFFINPTGRFVIGGPMGDCGLTGRKIIVDTYGGMARHGGGAFSGKDPSKVDRSAAYAARYVAKNIVAAGLADRCEIQVSYAIGVAEPTSIMVETFGTEKVPSEQLTLLVREFFDLRPYGLIQMLDLLHPIYKETAAYGHFGREHFPWEKTDKAQLLRDAAGLK
notes: S-adenosylmethionine synthase MetK, obligate GroEL substrate of E. coli; 379 C-alpha atoms compared with PDB 7LOO; core loop residues 97-111; In vitro the protein was heat denatured (60 °C, 15 min) in the presence of GroEL before encapsulation; it stands in the chaperonin as a single subunit; also called fMetK (folded MetK); source: E. coli BL21(DE3): overexpressed from pET22b (T7 promoter, …)
